The target in assay [1] is P301L tau repeat domain (P301L tauRD) (human). Nature of the assay: MST; Cy5-labelled wild-type or mutant tau/tauRD titrated with a serial two-fold dilution of DnaJC7 or single DnaJC7 domains; Monolith NT.115; technical triplicates; fit in PALMIST with a 1:1 binding model.
Assay [2] has as its target wild-type tau repeat domain (WT tauRD) (human). The description is as above.

B1: DnaJC7 (full-length, wild type, recombinant) (natural protein)
chain: MAAAAECDVVMAATEPELLDDQEAKREAETFKEQGNAYYAKKDYNEAYNYYTKAIDMCPKNASYYGNRAATLMMLGRFREALGDAQQSVRLDDSFVRGHLREGKCHLSLGNAMAACRSFQRALELDHKNAQAQQEFKNANAVMEYEKIAETDFEKRDFRKVVFCMDRALEFAPACHRFKILKAECLAMLGRYPEAQSVASDILRMDSTNADALYVRGLCLYYEDCIEKAVQFFVQALRMAPDHEKACIACRNAKALKAKKEDGNKAFKEGNYKLAYELYTEALGIDPNNIKTNAKLYCNRGTVNSKLRKLDDAIEDCTNAVKLDDTYIKAYLRRAQCYMDTEQYEEAVRDYEKVYQTEKTKEHKQLLKNAQLELKKSKRKDYYKILGVDKNASEDEIKKAYRKRALMHHPDRHSGASAEVQKEEEKKFKEVGEAFTILSDPKKKTRYDSGQDLDEEGMNMGDFDPNNIFKAFFGGPGGFSFEASGPGNFFFQFG
One may read the Kd as the constant that tells how readily two partners part at equilibrium. A lower Kd goes with tighter binding. In the case of B1, the figures for the Kd in assay [1] and in assay [2] were 6.2 µM and 2.2 µM, respectively.

These data come from publication PMC8429438.
